This note sets out measurements from patent US20170022545, “RNA MICROARRAY FOR DETECTING INTERACTION BETWEEN PROTEIN AND RNA CONTAINING A HIGHER-ORDER STRUCTURE” (KYOTO UNIVERSITY, published 2017).

Common to all, as to conditions: tags: Cy3-labelled (NHS ester); label: 3' pCp-Cy5; hairpin
The target in series [1] is T1, U1A (Homo sapiens, UniProt P09012 P09012:2-282). Briefly: RNA microarray, 40 nM U1A. The procedure: (§1) To a 1.5-mL tube, 120 ng of Cy5-RNA probe PoP_00001 Kt, 120 ng of Cy5-RNA probe PoP_00001, 00008, 00010, 00011, 00014, 00016, PoP_00018-28 and ultrapure water were mixed and controlled to have a volume of 18 μL. Hereinafter, the same operation as described in Section 8 above was performed. Binding of the RNA probe to a target spot was confirmed based on Cy5 signal.
(§2) Subsequently, to the gasket slide on the hybridization chamber, 70 μL of 40 nM Cy3-U1A was added and a microarray slide having RNA probes bound thereto was mounted and then a hybridization chamber was assembled. Incubation was performed at room temperature for 30 minutes. The hybridization chamber was made into pieces and the microarray slide was taken out, separated from the gasket in the TBSMT buffer, washed with TBSMT buffer at room temperature for 5 minutes, and further rinsed with TBSM buffer. Thereafter, the dried microarray slide was scanned.

Series [2] has as its target T1, U1A. Briefly: RNA microarray, signal at least 10-fold below U1A2/U1A. The procedure: as §1, §2
For series [3], the target named is T2, L7Ae (UniProt O29494 O29494:1-119). As to the kind of experiment: RNA microarray, no Cy3 signal. The method, then: The mixture solution was incubated at 100° C. for 5 minutes and subsequently on ice for 5 minutes. On the lower frame of a hybridization chamber (Agilent), a gasket slide (Agilent) was mounted. In a single well of the gasket slide, the mixture solution (45 μL) was added and the well was covered with a DNA Barcode microarray slide and then a hybridization chamber was assembled. The hybridization chamber was set at a rotor (Agilent) of a hybridization oven of 55° C. Incubation was performed for 20 hours at a rotation rate of 20 per minute. The hybridization chamber was taken out from the oven and made into pieces. The microarray slide was taken out, separated from the gasket in Gene Expression Wash Buffer 1 (Agilent), washed with Gene Expression Wash Buffer 1 at room temperature for 5 minutes and further washed with Gene Expression Wash Buffer 2 (Agilent) at 37° C. for 5 minutes. The dried microarray slide was scanned by a microarray scanner (Agilent) in the mode of 8×15K, c scan, AglilentHD_miRNA, two color, XDR Hi and Lo (0.05). In this manner, binding of an RNA probe to a target spot was confirmed based on Cy5 signal.
Subsequently, to the gasket slide on the hybridization chamber, 70 μL of 5 nM Cy3-L7Ae (controlled in concentration with TBSMT buffer (Tris-HCl 20 mM, NaCl 300 mM, 5 mM MgCl₂, 0.1% Tween-20)) was added and then a microarray slide scanned was mounted. A hybridization chamber was assembled and incubation was performed at room temperature for 30 minutes. The hybridization chamber was made into pieces and the microarray slide was taken out, separated from the gasket in the TBSMT buffer, washed with TBSMT buffer at room temperature for 5 minutes, and further washed with TBSM buffer (Tris-HCl 20 mM, NaCl 300 mM, 5 mM MgCl₂) at room temperature for 5 minutes. The dried microarray slide was scanned again. […] In addition, Cy3 signal, which was 1.5 times as strong as that at PoP_00001_Kt, was detected at a spot of PoP_00024_hsa-let-7e. No Cy3 signal was detected at spots of other 10 probes.

The target of series [4] is T2, L7Ae. As to the kind of experiment: EMSA; 50 mM HEPES-KOH pH 7.8, 100 mM KCl, on ice. The method, then:
Specific binding of DNA Barcode (bc25mer_00001) and Cy5-RNA probe (PoP_00001_Kt), and further, binding of Cy5-RNA probe (PoP_00001_Kt, PoP_00024_hsa-let-7e) and L7Ae were confirmed by EMSA as follows. First, bc25mer_00001 and PoP_00001_Kt or PoP_00024_hsa-let-7e were mixed and annealed. The composition of a reaction solution (11 μL) was as follows: 500 nM bc25mer_00001, 500 nM Cy5-RNA probe, 1× Annealing Buffer (50 mM HEPES-KOH (ph7.8), 100 mM KCl). The reaction was incubated at 95° C. for 5 minutes and at room temperature for 10 minutes. Subsequently, the DNA/RNA complex annealed and L7Ae were bound by mixing them as follows. The composition of a reaction solution (15 μL) was as follows: 0, 100, 200, 500 or 1000 nM Cy3-L7Ae, 50 nM DNA/RNA complex and 1× Annealing Buffer. Incubation was performed on ice for one hour. To the solution, 3.75 μL of a 5× dye solution (0.25% bromophenol blue, 30% glycerol) was added and mixed. The mixture solution (10 μL) was overlaid on non-denatured 15% polyacrylamide (1/30 bis-acrylamide) gel and electrophoresis was performed at 4° C. and 200 V for 60 minutes. After the electrophoresis, the gel was stained with SYBR Green I and II at room temperature for 15 minutes, and scanned by Typhoon FLA 7000 (GE Healthcare) in SYBR Green mode (600 pmt). Bands were confirmed.

Series [5] has as its target T2, L7Ae. Briefly: RNA microarray, 5 nM L7Ae, 300 mM NaCl, 5 mM MgCl2. The method, then: To a 1.5 mL tube, 120 ng of Cy5-RNA probe PoP_00001_Kt, 120 ng of Cy5-RNA probe PoP_00018-28 and ultrapure water were mixed and controlled to have a volume of 18 μL. To this, 4.5 μL of 10× Gene Expression Blocking Agent (Agilent) and 22.5 μL of 2×Hi-RPM Hybridization Buffer (Agilent) were added and mixed. The mixture solution was incubated at 100° C. for 5 minutes and subsequently on ice for 5 minutes. On the lower frame of a hybridization chamber (Agilent), a gasket slide (Agilent) was mounted. In a single well of the gasket slide, the mixture solution (45 μL) was added and the well was covered with a DNA Barcode microarray slide and then a hybridization chamber was assembled. The hybridization chamber was set at a rotor (Agilent) of a hybridization oven of 55° C. Incubation was performed for 20 hours at a rotation rate of 20 per minute. The hybridization chamber was taken out from the oven and made into pieces. […]
Subsequently, to the gasket slide on the hybridization chamber, 70 μL of 5 nM Cy3-L7Ae (controlled in concentration with TBSMT buffer (Tris-HCl 20 mM, NaCl 300 mM, 5 mM MgCl₂, 0.1% Tween-20)) was added and then a microarray slide scanned was mounted. […] In addition, Cy3 signal, which was 1.5 times as strong as that at PoP_00001_Kt, was detected at a spot of PoP_00024_hsa-let-7e.

A value given as a limit tells only on which side of the number the result lay.

T2 sequence (O29494 whole entry, one chain of several): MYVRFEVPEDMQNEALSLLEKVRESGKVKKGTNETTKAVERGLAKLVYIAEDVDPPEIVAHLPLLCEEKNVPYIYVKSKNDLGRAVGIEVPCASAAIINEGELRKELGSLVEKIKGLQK
T1 sequence (P09012 2-282, one chain of several): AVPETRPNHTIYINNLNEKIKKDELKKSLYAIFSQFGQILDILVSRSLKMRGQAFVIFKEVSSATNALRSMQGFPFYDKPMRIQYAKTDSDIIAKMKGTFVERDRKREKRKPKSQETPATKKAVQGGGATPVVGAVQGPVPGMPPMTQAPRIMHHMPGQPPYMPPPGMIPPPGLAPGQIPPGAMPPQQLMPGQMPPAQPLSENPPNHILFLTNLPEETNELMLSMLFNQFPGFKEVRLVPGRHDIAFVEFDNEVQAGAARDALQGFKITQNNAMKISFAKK

B1: PoP_00010_U1A2 (ssRNA)
RNA: GGUGUCCAGAUUAGGCGUGCCAUACCGUUUGGGAAUAUAGUGCCGAGUCCUUCGGGACAUUGCACCGGCGCUAUAUUCCCGGA
B1: the binding signal with U1A [1] was ≥ 10 fold Cy3 signal vs other spots.

B2: PoP_00014_U1A (ssRNA)
RNA: GAUAGAGCCAACUAUGCGCAGUUACCGUUUGGGAAUAUAGUGCCAUUGCACUCCGGCGCUAUAUUCCCGGA
B2: the binding signal with U1A [1] was ≥ 10 fold Cy3 signal vs other spots.

B3: PoP_00023_hsa-let-7d loop (ssRNA)
RNA: GCAAUAUCAUCGCGUGUUAAGGUGGCGGUGUACGAAGUUUCAGCAUAGUUUUAGGGCAGGGAUUUUGCCCACAAGGAGGUAACUAUGCUGAAGCUUCGUGCAC
Turning to B3, the binding result with U1A [2] and with L7Ae [3] was “no binding” each time.

B4: PoP_00024_hsa-let-7e loop (ssRNA)
RNA: GACGGGAUCCAAGCGCUCGUAAUAGCGGUGUACGAAGUUUCAGCAUAGUUGAGGAGGACACCCAAGGAGAUCACUAUGCUGAAGCUUCGUGCAC
Take B4: the binding signal with L7Ae [4] was approximately 10 fold stronger than Kt; with L7Ae [5], 1.5 fold Cy3 signal vs Kt. For the same molecule, the binding result with U1A [2] is recorded as “no binding”.
